Target: human mutant SOD1 G93A (Cu/Zn superoxide dismutase) (human)
Test: SEC

## human mutant SOD1 G93A (Cu/Zn superoxide dismutase) (natural protein)
  stoichiometry N: 2
